Experimental data as given in patent publication US20250171562A1.
One block for each binder: values may come before it.

Molecular target: mixture of three Der p 2 specific recombinant human IgE clones H10, H12, P4E (human) (UniProt P01854)
Experiment: RBL-SX38 IgE displacement, FACS

Chain of mixture of three Der p 2 specific recombinant human IgE clones H10, H12, P4E (human) (P01854 other isoform, or with tags, fused parts or gaps): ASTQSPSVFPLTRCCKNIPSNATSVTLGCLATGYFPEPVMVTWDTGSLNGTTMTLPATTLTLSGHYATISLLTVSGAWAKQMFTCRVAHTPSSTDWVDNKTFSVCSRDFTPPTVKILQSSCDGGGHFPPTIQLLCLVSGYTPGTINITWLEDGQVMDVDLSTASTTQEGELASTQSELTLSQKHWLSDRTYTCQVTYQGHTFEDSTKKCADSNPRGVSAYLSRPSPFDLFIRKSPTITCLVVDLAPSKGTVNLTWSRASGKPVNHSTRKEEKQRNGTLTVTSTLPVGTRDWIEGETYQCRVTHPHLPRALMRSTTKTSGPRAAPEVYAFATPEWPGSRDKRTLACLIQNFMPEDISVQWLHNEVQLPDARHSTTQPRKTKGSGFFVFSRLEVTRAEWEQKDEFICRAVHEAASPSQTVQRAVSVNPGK

EC50: 2 nM
Max effect/effect 1 µM: 99%
B1: NIgG4E3A1(G4S)1 (Fc fusion)
chain 1: DVQLQESGGGLVQAGGSLRLACAASGRTLSSYVVSWFRQAPGKERKFVAAITWSGLSTTYLDSVQGRFTISRDNTKDTVYLQMNSLKPQDTAIYYCAAGPNIPSILRTRESEYAYWGQGTQVTVSGGGGSGPPCPPCPAPEFLGGPSVFLFPPKPKDTLMISRTPEVTCVVVDVSQEDPEVQFNWYVDGVEVHNAKTKPREEQFNSTYRVVSVLTVLHQDWLNGKEYKCKVSNKGLPSSIEKTISKAKGQPREPQVYTLPPCQEEMTKNQVSLWCLVKGFYPSDIAVEWESNGQPENNYKTTPPVLDSDGSFFLYSRLTVDKSRWQEGNVFSCSVMHEALHNHYTQKSLSLSLGK
chain 2: EVQLLESGGGLVQPGGSLRLSCAASGFTFGNYDMAWVRQAPGKRPEWVSSIDTGGDITHYADSVKGRFTISRDNAKNTLYLQMNSLRPEDTAVYWCATDEEYALGPNEFDYYGQGTLVTVSSGGGGSGPPCPPCPAPEFLGGPSVFLFPPKPKDTLMISRTPEVTCVVVDVSQEDPEVQFNWYVDGVEVHNAKTKPREEQFNSTYRVVSVLTVLHQDWLNGKEYKCKVSNKGLPSSIEKTISKAKGQPREPQVCTLPPSQEEMTKNQVSLSCAVKGFYPSDIAVEWESNGQPENNYKTTPPVLDSDGSFFLVSRLTVDKSRWQEGNVFSCSVMHEALHNHYTQKSLSLSLGK

EC50: 532 nM
Max effect/effect 1 µM: 45%
B2: CIgG4E2A1(G4S)3 (Fc fusion)
chain 1: GPPCPPCPAPEFLGGPSVFLFPPKPKDTLMISRTPEVTCVVVDVSQEDPEVQFNWYVDGVEVHNAKTKPREEQFNSTYRVVSVLTVLHQDWLNGKEYKCKVSNKGLPSSIEKTISKAKGQPREPQVYTLPPCQEEMTKNQVSLWCLVKGFYPSDIAVEWESNGQPENNYKTTPPVLDSDGSFFLYSRLTVDKSRWQEGNVFSCSVMHEALHNHYTQKSLSLSLGKGGGGSGGGGSGGGGSDVQLQESGGGLVQAGGSLRLSCAASGRTISRYAVGWFRRPPAKEREFIGINWSGGSTTYADSAEGRFIISRDNAKNTVYLQMNSLKPEDTAVYYCAVPSVLVQGGISNPSQYDYWGQGTQVTVS
chain 2: GPPCPPCPAPEFLGGPSVFLFPPKPKDTLMISRTPEVTCVVVDVSQEDPEVQFNWYVDGVEVHNAKTKPREEQFNSTYRVVSVLTVLHQDWLNGKEYKCKVSNKGLPSSIEKTISKAKGQPREPQVCTLPPSQEEMTKNQVSLSCAVKGFYPSDIAVEWESNGQPENNYKTTPPVLDSDGSFFLVSRLTVDKSRWQEGNVFSCSVMHEALHNHYTQKSLSLSLGKGGGGSGGGGSGGGGSEVQLLESGGGLVQPGGSLRLSCAASGFTFGNYDMAWVRQAPGKRPEWVSSIDTGGDITHYADSVKGRFTISRDNAKNTLYLQMNSLRPEDTAVYWCATDEEYALGPNEFDYYGQGTLVTVSS

EC50: 2.2 nM
Max effect/effect 1 µM: 100%
B3: NIgG4E3A1(RS) (Fc fusion)
chain 1: DVQLQESGGGLVQAGGSLRLACAASGRTLSSYVVSWFRQAPGKERKFVAAITWSGLSTTYLDSVQGRFTISRDNTKDTVYLQMNSLKPQDTAIYYCAAGPNIPSILRTRESEYAYWGQGTQVTVSRSGPPCPPCPAPEFLGGPSVFLFPPKPKDTLMISRTPEVTCVVVDVSQEDPEVQFNWYVDGVEVHNAKTKPREEQFNSTYRVVSVLTVLHQDWLNGKEYKCKVSNKGLPSSIEKTISKAKGQPREPQVYTLPPCQEEMTKNQVSLWCLVKGFYPSDIAVEWESNGQPENNYKTTPPVLDSDGSFFLYSRLTVDKSRWQEGNVFSCSVMHEALHNHYTQKSLSLSLGK
chain 2: EVQLLESGGGLVQPGGSLRLSCAASGFTFGNYDMAWVRQAPGKRPEWVSSIDTGGDITHYADSVKGRFTISRDNAKNTLYLQMNSLRPEDTAVYWCATDEEYALGPNEFDYYGQGTLVTVSSRSGPPCPPCPAPEFLGGPSVFLFPPKPKDTLMISRTPEVTCVVVDVSQEDPEVQFNWYVDGVEVHNAKTKPREEQFNSTYRVVSVLTVLHQDWLNGKEYKCKVSNKGLPSSIEKTISKAKGQPREPQVCTLPPSQEEMTKNQVSLSCAVKGFYPSDIAVEWESNGQPENNYKTTPPVLDSDGSFFLVSRLTVDKSRWQEGNVFSCSVMHEALHNHYTQKSLSLSLGK
